Data taken from patent publication US20230012273A1 (Boehringer Ingelheim, published 2023).
Substitutions are numbered along the chain they refer to.

Columns and labels:
[1] = target: T1, full-length human SIRPγ (NP_061026.2) on cells (human, UniProt Q9P1W8 29-387); assay: flow cytometry, Expi-CHO cells expressing full-length wild-type human SIRPγ
T1 construct: also called CHO-hSIRPγ; γ WT
Experimental: […] These cells are blocked with donkey IgG and incubated on ice with increasing concentrations of antibodies for 60 minutes, washed and stained with AF647-conjugated donkey F(ab′)₂ anti-human IgG antibodies. Stained cells are washed, fixed, and analyzed by flow cytometry. Median fluorescent intensity is determined and used as a measure of antibody binding.

[2] = target: full-length human SIRPβ1 D→H on Expi-CHO cells (human, UniProt O00241 30-398); assay: flow cytometry, Expi-CHO cells
Experimental: These cells are blocked with donkey IgG and incubated on ice with increasing concentrations of antibodies for 60 minutes, washed and stained with AF647-conjugated donkey F(ab′)₂ anti-human IgG antibodies. Stained cells are washed, fixed, and analyzed by flow cytometry. Median fluorescent intensity is determined and used as a measure of antibody binding.

[3] = target: T2, cynomolgus SIRPα extracellular domain + His-tag (NP_001271679) (cynomolgus monkey); assay: SPR, Ab captured, ECD-His analyte
T2 construct: also called CySIRPα NP_001271679; cynoSIRPα
T2 chain: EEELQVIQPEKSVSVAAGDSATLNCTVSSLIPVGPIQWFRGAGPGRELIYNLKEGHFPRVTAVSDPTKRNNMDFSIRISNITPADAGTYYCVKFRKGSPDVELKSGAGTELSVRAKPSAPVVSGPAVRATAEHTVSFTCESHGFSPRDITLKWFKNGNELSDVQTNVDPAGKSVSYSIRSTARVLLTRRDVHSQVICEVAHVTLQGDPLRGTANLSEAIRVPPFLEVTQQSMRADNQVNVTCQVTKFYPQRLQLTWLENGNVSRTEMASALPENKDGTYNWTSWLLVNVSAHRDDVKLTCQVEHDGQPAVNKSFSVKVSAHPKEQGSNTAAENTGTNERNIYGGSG
How it was run: (§1)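 Steps: chip deactivated with 1M ethanolamine HCl for 420 sec at 10 μl/min; anti-SIRPα antibody captured; two-fold serial dilutions of His-tagged SIRP extracellular domain injected 300 sec at 30 μl/min; dissociation monitored 600 sec. All in 1×HBS-EP+ running buffer.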

[4] = target: T3, cynomolgus SIRPα extracellular domain + His-tag (EGM_02252) (cynomolgus monkey); assay: SPR, Ab captured, ECD-His analyte
T3 construct: also called CySIRPα EGM_02252; cynoSIRPα
T3 chain: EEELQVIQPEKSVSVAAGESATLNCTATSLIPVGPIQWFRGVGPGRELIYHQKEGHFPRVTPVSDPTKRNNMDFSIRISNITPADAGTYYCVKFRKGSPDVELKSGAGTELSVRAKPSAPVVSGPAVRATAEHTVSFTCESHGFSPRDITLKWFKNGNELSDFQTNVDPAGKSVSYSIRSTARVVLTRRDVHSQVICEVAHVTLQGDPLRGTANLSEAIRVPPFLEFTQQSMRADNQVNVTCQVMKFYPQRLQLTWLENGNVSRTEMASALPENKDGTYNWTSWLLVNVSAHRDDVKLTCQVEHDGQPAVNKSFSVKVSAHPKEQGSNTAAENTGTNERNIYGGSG
How it was run: as §1

[5] = target: T4, cynomolgus SIRPα extracellular domain + His-tag (XP_015313155) (cynomolgus monkey); assay: SPR, Ab captured, ECD-His analyte
T4 construct: also called CySIRPα XP_015313155; cynoSIRPα
T4 chain: T2 chain with A62P, V163F, L185V
How it was run: as §1

[6] = target: T5, cynomolgus SIRPβ1v3 extracellular domain + His-tag (XP_005568593) (cynomolgus monkey); assay: SPR, Ab captured, ECD-His analyte
T5 construct: also called Cyno SIRPβ1v3; cynoSIRPβ1v3
T5 chain: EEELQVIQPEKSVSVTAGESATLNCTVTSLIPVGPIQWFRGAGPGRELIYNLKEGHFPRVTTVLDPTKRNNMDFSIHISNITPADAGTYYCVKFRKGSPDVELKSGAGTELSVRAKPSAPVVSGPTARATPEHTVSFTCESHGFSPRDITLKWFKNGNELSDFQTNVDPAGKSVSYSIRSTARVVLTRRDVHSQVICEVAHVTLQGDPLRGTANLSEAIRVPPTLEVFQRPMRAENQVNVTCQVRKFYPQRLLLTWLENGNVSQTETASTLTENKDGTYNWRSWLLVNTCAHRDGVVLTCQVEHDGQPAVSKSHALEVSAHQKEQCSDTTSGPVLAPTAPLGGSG
How it was run: as §1

[7] = target: T6, cynomolgus SIRPγ extracellular domain + His-tag (XP_005568591) (cynomolgus monkey, UniProt Q9P1W8 29-359 (human entry)); assay: SPR, Ab captured, ECD-His analyte
T6 construct: also called Cyno SIRPγ; cynoSIRPγ
T6 chain: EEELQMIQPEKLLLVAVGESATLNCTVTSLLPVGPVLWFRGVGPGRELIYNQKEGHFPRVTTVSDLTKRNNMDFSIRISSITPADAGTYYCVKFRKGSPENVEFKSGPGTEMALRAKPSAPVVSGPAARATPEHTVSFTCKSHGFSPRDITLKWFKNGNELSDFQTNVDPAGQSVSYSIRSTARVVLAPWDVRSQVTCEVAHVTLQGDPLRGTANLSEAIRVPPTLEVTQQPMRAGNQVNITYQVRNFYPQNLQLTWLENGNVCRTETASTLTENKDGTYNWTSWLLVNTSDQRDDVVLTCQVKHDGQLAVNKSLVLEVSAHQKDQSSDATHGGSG
How it was run: as §1

Chain of full-length human SIRPβ1 D→H on Expi-CHO cells (O00241 30-398 D130H): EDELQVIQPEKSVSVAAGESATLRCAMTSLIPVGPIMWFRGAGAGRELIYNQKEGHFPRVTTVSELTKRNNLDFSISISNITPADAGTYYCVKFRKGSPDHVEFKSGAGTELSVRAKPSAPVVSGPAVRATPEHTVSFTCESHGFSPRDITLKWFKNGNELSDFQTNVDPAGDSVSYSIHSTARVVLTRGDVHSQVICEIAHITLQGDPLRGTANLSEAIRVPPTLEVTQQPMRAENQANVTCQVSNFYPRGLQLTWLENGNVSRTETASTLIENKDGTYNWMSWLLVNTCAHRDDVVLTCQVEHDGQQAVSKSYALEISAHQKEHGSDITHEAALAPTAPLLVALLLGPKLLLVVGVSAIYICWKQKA
T1 sequence (Q9P1W8 29-387): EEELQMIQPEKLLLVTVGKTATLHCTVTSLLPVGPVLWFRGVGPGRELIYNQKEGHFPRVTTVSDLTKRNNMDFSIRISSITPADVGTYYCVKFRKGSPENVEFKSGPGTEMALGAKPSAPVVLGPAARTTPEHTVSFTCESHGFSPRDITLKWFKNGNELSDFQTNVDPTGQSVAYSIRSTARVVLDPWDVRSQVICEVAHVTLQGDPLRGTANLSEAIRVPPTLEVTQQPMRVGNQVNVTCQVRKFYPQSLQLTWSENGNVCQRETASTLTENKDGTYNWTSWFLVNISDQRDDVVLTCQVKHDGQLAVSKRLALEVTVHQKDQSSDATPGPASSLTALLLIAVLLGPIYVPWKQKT

B1: Antibody E22 (antibody, human IgG1, kappa, L234A L235A, V domains shown)
VH: QVQLQESGPGLVKPSETLSLTCTVSGGSIRDYYWSWIRQPPGKGLEWIGFIYYNGRTFYQSSLKSRVTISLDTSKNQFSLKMTSVTAADTAVYYCARVRAYSGIGLDGTDVWGQGTTVTVSS
VL: DIVMTQSPLSLPVTPGEPASISCRSSQSLLYSTGYTYLDWYLQRPGQSPQLLIYGGSSRASGVPDRFSGSGSGTDFTLKISRVEAEDVGVFYCGQALQTPLTFGQGTKVEIKR
binding result [1]: no binding (tested: about 67 nM)

B2: Antibody A10 (antibody, human IgG1, kappa, L234A L235A)
heavy: not shown
light: DIQMTQSPSSLSASVGDRVTITCRASQDINNYLAWFQQKPGKAPKSLIYTASSLHSGVPSKFSGSGSGTDFTLTISSLQPEDFATYYCQQYVSYPYTFGQGTKLEIKRTVAAPSVFIFPPSDEQLKSGTASVVCLLNNFYPREAKVQWKVDNALQSGNSQESVTEQDSKDSTYSLSSTLTLSKADYEKHKVYACEVTHQGLSSPVTKSFNRGEC
binding result [1]: no binding (tested: about 67 nM)

B3: Antibody A (antibody, human IgG1, kappa, L234A L235A)
heavy: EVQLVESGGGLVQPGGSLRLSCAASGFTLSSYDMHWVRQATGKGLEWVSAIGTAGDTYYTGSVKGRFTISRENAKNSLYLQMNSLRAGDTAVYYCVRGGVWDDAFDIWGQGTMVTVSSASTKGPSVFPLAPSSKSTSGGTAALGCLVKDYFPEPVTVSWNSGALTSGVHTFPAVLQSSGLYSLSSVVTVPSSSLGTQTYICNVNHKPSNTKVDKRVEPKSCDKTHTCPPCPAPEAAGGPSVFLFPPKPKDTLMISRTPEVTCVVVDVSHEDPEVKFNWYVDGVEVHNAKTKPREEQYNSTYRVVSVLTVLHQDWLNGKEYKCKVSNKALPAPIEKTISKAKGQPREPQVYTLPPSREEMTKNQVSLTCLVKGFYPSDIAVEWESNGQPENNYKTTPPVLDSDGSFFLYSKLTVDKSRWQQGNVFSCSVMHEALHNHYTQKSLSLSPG
light: B2 light
binding result [2]: no binding
Kd [3]: 336 nM
Kd [4]: 258 nM
Kd [5]: 165 nM
Kd [6]: 246 nM
binding result [7]: no binding (tested: 1000 nM)

B4: Antibody A10 (antibody, human IgG1, kappa, L234A L235A)
heavy: not shown
light: B2 light
binding result [2]: no binding
Kd [3]: 378 nM
Kd [4]: 249 nM
Kd [5]: 180 nM
Kd [6]: 271 nM
binding result [7]: no binding (tested: 1000 nM)
